Measurements as given in US20150307625A1 (Bayer, published 2015).

T1: dog Protein C (zymogen) (dog, UniProt Q28278 43-456)
T1 construct: mature; also called dog PC
T1 sequence (looked up): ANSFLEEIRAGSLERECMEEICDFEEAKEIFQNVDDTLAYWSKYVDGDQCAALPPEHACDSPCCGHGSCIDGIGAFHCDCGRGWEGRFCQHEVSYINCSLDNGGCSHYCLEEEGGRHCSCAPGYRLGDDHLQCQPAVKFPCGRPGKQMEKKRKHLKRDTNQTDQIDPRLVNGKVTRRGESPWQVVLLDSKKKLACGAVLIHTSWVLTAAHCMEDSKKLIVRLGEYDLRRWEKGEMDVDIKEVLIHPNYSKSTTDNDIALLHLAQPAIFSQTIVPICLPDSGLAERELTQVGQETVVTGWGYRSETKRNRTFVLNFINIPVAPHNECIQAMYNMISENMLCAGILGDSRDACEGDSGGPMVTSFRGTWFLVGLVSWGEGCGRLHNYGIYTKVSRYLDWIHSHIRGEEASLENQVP

T2: mouse Protein C (zymogen) (mouse, UniProt P33587 42-460)
T2 construct: mature; also called mouse PC
T2 sequence (looked up): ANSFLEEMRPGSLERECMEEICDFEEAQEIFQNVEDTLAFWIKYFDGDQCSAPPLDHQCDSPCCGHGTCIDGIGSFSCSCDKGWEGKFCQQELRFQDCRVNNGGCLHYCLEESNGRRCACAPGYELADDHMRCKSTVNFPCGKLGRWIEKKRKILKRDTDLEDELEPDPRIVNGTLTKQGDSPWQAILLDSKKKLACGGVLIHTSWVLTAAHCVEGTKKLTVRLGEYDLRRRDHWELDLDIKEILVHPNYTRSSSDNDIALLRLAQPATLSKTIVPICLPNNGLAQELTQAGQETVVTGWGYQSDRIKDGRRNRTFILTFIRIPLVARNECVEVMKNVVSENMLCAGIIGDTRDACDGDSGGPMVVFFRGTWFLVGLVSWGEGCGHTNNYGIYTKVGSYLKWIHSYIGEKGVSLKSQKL

T3: dog activated Protein C (dog, UniProt Q28278 43-456)
T3 construct: mature; also called dog aPC; dAPC
T3 sequence (looked up): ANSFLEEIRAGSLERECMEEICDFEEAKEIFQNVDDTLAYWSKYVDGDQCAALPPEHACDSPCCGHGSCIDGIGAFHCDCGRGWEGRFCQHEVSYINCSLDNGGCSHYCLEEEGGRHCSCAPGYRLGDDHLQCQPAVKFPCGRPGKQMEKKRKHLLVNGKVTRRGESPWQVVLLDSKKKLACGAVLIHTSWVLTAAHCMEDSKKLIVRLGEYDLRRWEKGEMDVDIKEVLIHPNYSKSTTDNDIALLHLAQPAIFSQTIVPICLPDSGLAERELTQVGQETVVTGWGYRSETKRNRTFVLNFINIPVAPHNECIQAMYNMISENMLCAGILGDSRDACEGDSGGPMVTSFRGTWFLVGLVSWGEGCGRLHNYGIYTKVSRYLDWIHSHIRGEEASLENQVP


Tests used:
[1] = target: T4, human activated Protein C (human, UniProt P04070 43-461); assay: Biacore, Fab
T4 construct: also called human aPC; hAPC

[2] = target: T4, human activated Protein C; assay: direct ELISA, antigen coated, Fab
dog Protein C (zymogen) = target: T1, dog Protein C (zymogen); assay: direct ELISA, dPC coated at 10 ug/ml, Fab at 20 nM, anti-human Fab-HRP, AmplexRed (RFU)
Description: (§1) To determine the binding selectivity of these fabs, their binding activities to the proenzyme human PC, to thrombin (FIIa), and to the activated Factor II (FIIa, thrombin), Factor VII (FVIIa), Factor IX (FIXa), and Factor X (FXa) were also assessed by ELISA. Briefly, an ELISA plate was coated with human aPC at 1 ug/ml, mouse PC at 10 ug/ml, dog PC at 10 ug/ml, other coagulation factors (FIIa, FVIIa, FIXa, FXa) at 5-10 ug/ml. Anti-aPC Fabs were added to the wells at 20 nM (1 ug/ml). Bound Fabs were detected by the secondary antibody (anti-human Fab-HRP) followed by HRP substrate AmplexRed.

[3] = target: T2, mouse Protein C (zymogen); assay: direct ELISA, mPC coated at 10 ug/ml, Fab at 20 nM, anti-human Fab-HRP, AmplexRed (RFU)
Description: as §1

[4] = target: T5, human Protein C (zymogen) (human, UniProt P04070 43-461); assay: direct ELISA, antigen coated at 100 ng/well, Fab at 20 nM (1 ug/ml), anti-human Fab-HRP, AmplexRed (RFU)
T5 construct: also called human PC; hPC
Description: (§2) FIG. 3 depicts a graph characterizing anti-APC Fabs by direct ELISA. An ELISA plate was coated with human PC (hPC), human aPC (hAPC), dog aPC (dAPC), mouse aPC (mAPC) at 100 ng per well. Purified Fabs designate on the X-axis were added to the plate at 20 nM (1 ug/ml). Bound Fab was detected by the secondary antibody (anti-human Fab-HRP) followed by HRP substrate AmplexRed. The purified Fabs preferentially bind to human aPC and, with the exception of Fab R41C17, show little to no binding to human PC.
(§3) Antigens were coated directly on ELISA plates. Coating antigens included human PC (plasma-derived), human aPC (recombinant), dog aPC (plasma-derived), and mouse aPC (recombinant) at 100 ng/well in PBS/Ca buffer. After blocking the plate with 5% milk/PBS and washing the plate with PBS-Tween20, soluble Fabs (1 ug/ml, 20 nM) were added to the plate and incubated for 1 h at RT with shaking. Fab binding was detected with anti-human Fab (lambda) antibody-HRP and Amplex red as substrate. […] In contrast, R41C17 binds to both human APC and human PC. Also shown in FIG. 3 is cross-species reactivity of Fabs by ELISA.

dog activated Protein C [5] = target: T3, dog activated Protein C; assay: as above
Description: as §2, §3

[6] = target: T4, human activated Protein C; assay: direct ELISA, aPC coated, hIgG1
[7] = target: T5, human Protein C (zymogen); assay: direct ELISA, antigen coated at 1 ug/ml, IgG at 20 nM, anti-human IgG-HRP, AmplexRed (RFU)
dog activated Protein C [8] = target: T3, dog activated Protein C; assay: as above
dog activated Protein C [9] = target: T3, dog activated Protein C; assay: Biacore, Fab
dog activated Protein C [10] = target: T3, dog activated Protein C; assay: direct ELISA, antigen coated, Fab

Binder	Kd [1] [nM]	EC50 [2] [nM]	binding result (dog Protein C (zymogen))	binding result [3]	binding result [4]	binding result (dog activated Protein C [5])	EC50 [6] [nM]	binding result (dog activated Protein C [8])	also measured
T46P19 Fab (Fab, V domains shown, Human Fab (lambda), expressed in E. coli) VH: EVQLLESGGGLVQPGGSLRLSCAASGFTFSGYGMHWVRQAPGKGLEWVSGINWNGGSTGYADSVKGRFTISRDNSKNTLYLQMNSLRAEDTAVYYCARNRATRSGYYYFDSWGQGTLVTVTS VL: LTQPPSASGTPGQRVTISCTGSSSNIGAGYDVHWYQQLPGTAPKLLIYGNINRPSGVPDRFSGSKSGTSASLAISGLRSEDEADYYCSSYTRSATLVFGGGTKLTVLG	7.2	10.3	no binding (tested: 20 nM)	no binding (tested: 20 nM)	no binding (tested: 20 nM)	no binding (tested: 20 nM)			
T46P19 hIgG1 (antibody, V domains shown) VH: EVQLLESGGGLVQPGGSLRLSCAASGFTFSGYGMHWVRQAPGKGLEWVSGINWNGGSTGYADSVKGRFTISRDNSKNTLYLQMNSLRAEDTAVYYCARNRATRSGYYYFDSWGQGTLVTVTS VL: LTQPPSASGTPGQRVTISCTGSSSNIGAGYDVHWYQQLPGTAPKLLIYGNINRPSGVPDRFSGSKSGTSASLAISGLRSEDEADYYCSSYTRSATLVFGGGTKLTVLG							0.37	no binding (tested: 20 nM)	binding result [7]: no binding (tested: 20 nM)
R41C17 Fab (Fab, V domains shown, Human Fab (lambda), expressed in E. coli; also called R4117) VH: EVQLLESGGGLVQPGGSLRLSCAASGFTFSNYAMSWVRQSPGKGLEWVAVISYDGREKYYSDSVKGRFTISRDNSKNTLYLQMNSLRAEDTAVYYCARDRGRTFDYWGQGTLVTVTS VL: LTQPPSASGTPGQRVTISCTGSSSNIGAGYVVHWYQQLPGTAPKLLIYRNNHRPSGVPDRFSGSKSGTSASLAISGLRSEDEADYYCAAWDDSLNGRVFGGGTKLTVLG	4.8	8.6	no binding (tested: 20 nM)	no binding (tested: 20 nM)		no binding (tested: 20 nM)			
R41C17 hIgG1 (antibody, V domains shown) VH: EVQLLESGGGLVQPGGSLRLSCAASGFTFSNYAMSWVRQSPGKGLEWVAVISYDGREKYYSDSVKGRFTISRDNSKNTLYLQMNSLRAEDTAVYYCARDRGRTFDYWGQGTLVTVTS VL: LTQPPSASGTPGQRVTISCTGSSSNIGAGYVVHWYQQLPGTAPKLLIYRNNHRPSGVPDRFSGSKSGTSASLAISGLRSEDEADYYCAAWDDSLNGRVFGGGTKLTVLG							0.55	no binding (tested: 20 nM)	
C7A23 Fab (Fab, V domains shown, Human Fab (lambda) from a phage library, expressed in E. coli) VH: EVQLLESGGGLVQPGGSLRLSCAASGFTFGNHWMTWVRQAPGKGLEWVSGVSWNGSRTHYADSVKGRFTISRDNSKNTLYLQMNSLRAEDTAVYYCALTGRSGWMRFPNWFDPWGQGTLVTVTS VL: QSVLTQPPSASGTPGQRVTISCSGSSSNIGNNYVSWYQQLPGTAPKLLIYRNNQRPSGVPDRFSGSKSGTSASLAISGLRSEDEADYYCQSYDSDLSGPYVLFGGGTKLTVLG			no binding (tested: 20 nM)	no binding (tested: 20 nM)					Kd (dog activated Protein C [9]): 1.3 nM; EC50 (dog activated Protein C [10]): 6 nM
C22J13 Fab (Fab, V domains shown, Human Fab (lambda) from a phage library, expressed in E. coli) VH: EVQLLESGGGLVQPGGSLRLSCAASGFTFSSNYMSWVRQAPGKGLEWVAVISYDGSNKYYADSVKGRFTISRDNSKNTLYLQMNSLRAEDTAMYYCALTGRSGWMRFPNWFDPWGQGTLVTVTS VL: QSVLTQPPSASGTPGQRVTISCSGSDSNIGSNAVNWYQQLPGTAPKLLIYDNNKRPSGVPDRFSGSKSGTSASLAISGLRSEDEADYYCSSYTSSNTVVFGGGTKLTVLG	16	10.6		no binding (tested: 20 nM)	no binding (tested: 20 nM)				
O3E7 hIgG1 (antibody, V domains shown, also called O3E7-IgG; 03E7) VH: EVQLLESGGGLVQPGGSLRLSCAASGFTFSSYSMNWVRQAPGKGLEWVSAISGSGGSTYYADSVKGRFTISRDNSKNTLYLQMNSLRAEDTAVYYCARDRRVRGIYDAFDMWGQGTLVTVTS VL: QSVLTQPPSTSGTPGQRVTISCTGSSSNIGAGFDVHWYQQLPGTAPKLLIYGNSNRPSGVPDRFSGSKSGTSASLAISGLRSEDEADYYCATWQDTLTGWMFGGGTKLTVLG							16.9		
C26B9 Fab (Fab, V domains shown, Human Fab (lambda) from a phage library, expressed in E. coli) VH: EVQLLESGGGLVQPGGSLRLSCAASGFTFSSYGMHWVRQAPGKGLEWVSVIYSGGSTYYADSVKGRFTISRDNSKNTLYLQMNSLRAEDTAVYYCARMGRAFDIWGQGTLVTVTS VL: QSVLTQPPSASGTPGQRVTISCSGSSSNIRSNTVNWYQQLPGTAPKLLIYGNSNRPSGVPDRFSGSKSGTSASLAISGLRSEDEADYYCQSYDSSLSGDVVFGGGTKLTVLG	7.9	10.3	no binding (tested: 20 nM)	no binding (tested: 20 nM)	no binding (tested: 20 nM)	no binding (tested: 20 nM)			
C26B9 hIgG1 (antibody, V domains shown) VH: EVQLLESGGGLVQPGGSLRLSCAASGFTFSSYGMHWVRQAPGKGLEWVSVIYSGGSTYYADSVKGRFTISRDNSKNTLYLQMNSLRAEDTAVYYCARMGRAFDIWGQGTLVTVTS VL: QSVLTQPPSASGTPGQRVTISCSGSSSNIRSNTVNWYQQLPGTAPKLLIYGNSNRPSGVPDRFSGSKSGTSASLAISGLRSEDEADYYCQSYDSSLSGDVVFGGGTKLTVLG							0.65	no binding (tested: 20 nM)	binding result [7]: no binding (tested: 20 nM)
